Reference: patent publication US20210275498A1, “IMIDAZOLYL ETHANAMIDE PENTANDIOIC ACID FOR USE IN THERAPY OF SYMPTOMS RELATED TO EXPOSURE TO LETHAL RADIATION” (priority 2018, published 2021)

How the values were obtained:
Type in all cases: in vivo
C57BL/6 mice [1] = assay: Mortality / survival to Day 30 after whole-body irradiation (5.8 Gy or 6.0 Gy); settings: Group 6 GL (SCx1): 0.34 mg/kg SC SID Day 1, 2, 3, therapeutic, 5.8 Gy
Description: Based on a previously reported study (Williams et al. 2010, Plett et al. 2012, Chua et al. 2014, Singh et al., 2015), the mouse model was developed to investigate LD25 and LD50. The whole-body irradiation and selected dose serve as a translational in vivo model mimicking possible radiation exposure to humans following a nuclear incident.
Animals (C57BL/6 mice) were supplied by Jackson Laboratories (Bar Harbor, Me. facility). Animals were maintained at SNBL USA (Everett, Wash. facility) as stock prior to study assignment and were screened for health by veterinary staff prior to use on study. 205 animals were assigned to treatment groups.
Oral application of Myelo001 would be conducive for nuclear or other radiation incidents and was chosen for this study. […] The human equivalent dose is estimated to be 4 mg/kg based on allometric calculations.
(§1) Based on the ARS Scoring SNBL SOP, if the sum of the three parameter scores totaled 8 or higher, the animal was considered moribund and was euthanized with an unscheduled necropsy performed according to the moribund animal SOP.
Cageside mortality checks were conducted per SOP, twice daily after Day −3. Morning and afternoon checks began 2 to 3 hours after the completion of the respective ARS scorings. Individual assessments were only documented for apparently moribund animals by re-scoring, or for found dead animals by removal.
Survival data were summarized descriptively and graphically using the Kaplan-Meier method. Further, death rates were tabulated by treatment. The equality of two or more survivor curves was tested with log rank tests. In addition, Cox-regression models were used to estimate hazard ratios, p-values and 95% confidence intervals (95% CI).
The focus of the survival analysis is irradiation related death between irradiation on Day 0 and Day 30. Thus, the scheduled necropsies on Day 7 and Day 14 or deaths unrelated to radiation (Animals 2041, 9012 and 9021) were considered as censored events.

C57BL/6 mice [2] = assay: ARS scoring (posture, coat, behavior) after whole-body irradiation; design: key to Supporting variable: ARS scores (trend): positive trend (descriptively) +; negative trend (descriptively) −; no difference (descriptively) 0; settings: Group 6 GL (SCx1): 0.34 mg/kg SC SID Day 1, 2, 3, therapeutic, 5.8 Gy
Experimental: Scores on a scale of 1 to 4 (minimal, mild, moderate and severe) for posture, coat, and behavior were recorded twice daily per SNBL SOP, beginning on Day −3, except on the day of scheduled necropsy when scoring occurred only once. Observations were performed by 5 individuals during the course of the study.
After Day 0, the first ARS scoring began in the morning and the second ARS scoring began 4 to 6 hours following the completion of the morning ARS scoring. On the day of scheduled necropsy, ARS scoring occurred in the morning, prior to necropsy.
as §1

C57BL/6 mice [3] = assay: Peripheral hematology after whole-body irradiation; settings: Group 6 GL (SCx1): 0.34 mg/kg SC SID Day 1, 2, 3, therapeutic, 5.8 Gy
Description: The primary outcome of this study was mortality and secondary outcomes were changes in hematology (peripheral and bone marrow). The endpoints were chosen to follow Animal Rule requirements that state that animal study endpoint be clearly related to the clinical benefit (generally, the enhancement of survival or prevention of major morbidity). The secondary endpoints were chosen to potentially contribute to an understanding of the disease or condition and a characterization of the treatment effect.

C57BL/6 mice [4] = assay: Gross pathology and histopathology (testes degeneration, bone marrow cellularity) after whole-body irradiation; settings: Day 14, insignificant (p=0.078); Group 6 GL (SCx1): 0.34 mg/kg SC SID Day 1, 2, 3, therapeutic, 5.8 Gy
Description: (§2) FIG. 13 Testes. (A): Percentage of severity of testes degeneration according to four categories (minimal, mild, moderate and marked) in group 2 (VL (POx1); 2), group 3 (ML (IPx2); 3), group 4 (ML (POx2); 4) and group 5 (ML (POx1); 5). (B): Percentage of severity of testes degeneration according to four categories (minimal, mild, moderate and marked) in group 2 (VL (POx1);2), 6 (GL (SCx1); 6) and 7 (M/GL (PO/SCx1); 7). (C): Percentage of severity of testes degeneration according to four categories (minimal, mild, moderate and marked) in group 8 (VH (POx1); 8 and 9 (MH (POx1); 9).
as §2, with “14 Bone marrow cellularity.” for “13 Testes.”, “bone marrow cellularity decrease” for “severity of testes degeneration”

C57BL/6 mice [5] = assay: as above; design: key to Supporting variable: Bone marrow celluarity (trend) / Supporting variable: Testes degradation (trend): positive trend (descriptively) +; negative trend (descriptively) −; no difference (descriptively) 0
[6] = Day 14 necropsy, Group 6: 5.8 Gy, subcutaneous, 0.34 mg/kg, Days 1, 2 and 3
[7] = Group 6 GL (SCx1): 0.34 mg/kg SC SID Day 1, 2, 3, therapeutic, 5.8 Gy

B1: G-CSF: Neupogen (Filgrastim; Granulocyte colony-stimulating factor; G-CSF), positive control article, Amgen (protein, UniProt P09919 31-207, looked up)
Granulocyte …: TPLGPASSLPQSFLLKCLEQVRKIQGDGAALQEKLVSECATYKLCHPEELVLLGHSLGIPWAPLSSCPSQALQLAGCLSQLHSGLFLYQGLLQALEGISPELGPTLDTLQLDVADFATTIWQQMEELGMAPALQPTQGAMPAFASAFQRRAGGVLVASHLQSFLEVSYRVLRHLAQP
modifications: filgrastim
notes: Neupogen (Filgrastim; Granulocyte colony-stimulating factor; G-CSF), positive control article, Amgen
Q: B1 was tested. Which “Dead (irradiation related deaths)” value (C57BL/6 mice [1]) did it give?
A: Its value is 1.

Q: What about the “Irradiation related death rate, Rate (per 100 Days)” value (C57BL/6 mice [1]) of the same molecule?
A: The value was 0.42 per 100 Days.

Q: And the “Survival after 30 days (Kaplan-Meier estimate)” value (C57BL/6 mice [1])?
A: The value was 0.90.

Q: And the “Time at Risk” value (C57BL/6 mice [1])?
A: The value was 237 days.

Q: And the “Time to 10% death, Time” value (C57BL/6 mice [1])?
A: The value was 12 days.

Q: What about the “Hazard ratio (Cox regression, risk of radiation induced death)” value (C57BL/6 mice [1]; reference group VL (POx1), 2) of the same molecule?
A: The value was 0.72.

Q: What about the “Quantity ratio of survival probability (dose reduction factor, DRF), day 30, relative to control group” value (C57BL/6 mice [1]; vs VL (POx1), 2) of the same molecule?
A: Its value is 1.1.

Q: What about the “ARS scoring for coat” value (C57BL/6 mice [2]; Day 9) of the same molecule?
A: Its value is “increased percentage of mild grade”.

Q: And the “ARS posture score, most frequent grade (mode)” value (C57BL/6 mice [2]; Day 15, control group 2 mild (65%))?
A: Its value is “normal”.

Q: And the “Supporting variable: ARS scores (trend)” value (C57BL/6 mice [2])?
A: The value was “+”.

Q: And the “hemoglobin and hematocrit, red blood cells compared to control group 2” value (C57BL/6 mice [3]; Day 14)?
A: Its value is “increased”.

Q: What about the “median WBC and neutrophil count compared to control Group 2” value (C57BL/6 mice [3]; Day 30) of the same molecule?
A: The value was “trend in the increase”.

Q: What about the “testes degeneration, proportion by severity category” value (C57BL/6 mice [4]) of the same molecule?
A: The value was “higher proportions of testes in the minimal category”.

Q: What about the “gross pathology: findings not typical of acute radiation syndrome” value (C57BL/6 mice [5]; [6]) of the same molecule?
A: Its value is “cysts in spleen were observed”.

Q: And the “gross pathology: lesions typical of acute radiation syndrome (red discoloration of organs)” value (C57BL/6 mice [5]; [6])?
A: Its value is “no red discoloration in the brain, testes”.

Q: What about the “bone marrow cellularity decrease, category” value (C57BL/6 mice [5]; Day 30, insignificant, Group 6 GL (SCx1): 0.34 mg/kg SC SID Day 1, 2, 3, therapeutic, 5.8 Gy) of the same molecule?
A: The value was “minimal category in sternum and no marked category in femur bone marrow”.

Q: And the “Supporting variable: Bone marrow celluarity (trend)” value (C57BL/6 mice [5]; [7])?
A: Its value is “+”.

Q: And the “Supporting variable: Testes degradation (trend)” value (C57BL/6 mice [5]; [7])?
A: The value was “+”.
